The values below come from patent publication US20110269234.

The test system of the data set is KDR-targeted ZFN pair (artificial). The experiment in a line: cell_activity. Particulars: HeLa; up to about 25% with 30 C cold shock versus 1% at 37 C.

As for KDR locus target, the activity (% modified chromatids) worked out at 25.
